Assay results: the supplement of paper PMC10567573

B1: GNB5 (parent)
chain: YYPSGDAFASGSDDATCRLYDLRA

Variants of: B1
Experiment: protein stability index of a GFP-peptide fusion (GPS, HEK-293T) (PSI 1-6); higher = more stable
Details: c terminus: a fixed tail appended
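Further: lentivirally expressed fusions sorted by FACS into six bins by GFP to DsRed ratio, PSI derived from sequencing read proportions per bin multiplied by bin number.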

Variant	protein stability index
AYPSGDAFASGSDDATCRLYDLRA	3.83
CYPSGDAFASGSDDATCRLYDLRA	3.3
DYPSGDAFASGSDDATCRLYDLRA	4.09
EYPSGDAFASGSDDATCRLYDLRA	3.81
FYPSGDAFASGSDDATCRLYDLRA	2.65
GYPSGDAFASGSDDATCRLYDLRA	3.7
HYPSGDAFASGSDDATCRLYDLRA	3.95
IYPSGDAFASGSDDATCRLYDLRA	3.52
KYPSGDAFASGSDDATCRLYDLRA	3.55
LYPSGDAFASGSDDATCRLYDLRA	3.84
MYPSGDAFASGSDDATCRLYDLRA	3.67
NYPSGDAFASGSDDATCRLYDLRA	3.71
PYPSGDAFASGSDDATCRLYDLRA	3.72
QYPSGDAFASGSDDATCRLYDLRA	3.81
RYPSGDAFASGSDDATCRLYDLRA	3.58
SYPSGDAFASGSDDATCRLYDLRA	3.99
TYPSGDAFASGSDDATCRLYDLRA	3.6
VYPSGDAFASGSDDATCRLYDLRA	3.72
WYPSGDAFASGSDDATCRLYDLRA	2.86
YAPSGDAFASGSDDATCRLYDLRA	1.79
YCPSGDAFASGSDDATCRLYDLRA	2.09
YDPSGDAFASGSDDATCRLYDLRA	4.29
YEPSGDAFASGSDDATCRLYDLRA	4.83
YFPSGDAFASGSDDATCRLYDLRA	2.03

Variant	protein stability index
YGPSGDAFASGSDDATCRLYDLRA	2.26
YHPSGDAFASGSDDATCRLYDLRA	2.69
YIPSGDAFASGSDDATCRLYDLRA	2.25
YKPSGDAFASGSDDATCRLYDLRA	4.08
YLPSGDAFASGSDDATCRLYDLRA	3.34
YMPSGDAFASGSDDATCRLYDLRA	2.48
YNPSGDAFASGSDDATCRLYDLRA	3.55
YPPSGDAFASGSDDATCRLYDLRA	3.16
YQPSGDAFASGSDDATCRLYDLRA	2.4
YRPSGDAFASGSDDATCRLYDLRA	3.66
YSPSGDAFASGSDDATCRLYDLRA	2.18
YTPSGDAFASGSDDATCRLYDLRA	1.96
YVPSGDAFASGSDDATCRLYDLRA	2.02
YWPSGDAFASGSDDATCRLYDLRA	1.75
YYASGDAFASGSDDATCRLYDLRA	2.55
YYCSGDAFASGSDDATCRLYDLRA	2.75
YYDSGDAFASGSDDATCRLYDLRA	3.46
YYESGDAFASGSDDATCRLYDLRA	4.01
YYFSGDAFASGSDDATCRLYDLRA	2.5
YYGSGDAFASGSDDATCRLYDLRA	3.33
YYHSGDAFASGSDDATCRLYDLRA	3.04
YYISGDAFASGSDDATCRLYDLRA	2
YYKSGDAFASGSDDATCRLYDLRA	2.64
YYLSGDAFASGSDDATCRLYDLRA	2.31

Variant	protein stability index
YYMSGDAFASGSDDATCRLYDLRA	2.99
YYNSGDAFASGSDDATCRLYDLRA	3.36
YYQSGDAFASGSDDATCRLYDLRA	3.21
YYRSGDAFASGSDDATCRLYDLRA	2.88
YYSSGDAFASGSDDATCRLYDLRA	3.27
YYTSGDAFASGSDDATCRLYDLRA	3.52
YYVSGDAFASGSDDATCRLYDLRA	2.31
YYWSGDAFASGSDDATCRLYDLRA	2.32
YYYSGDAFASGSDDATCRLYDLRA	2
YYPAGDAFASGSDDATCRLYDLRA	3.06
YYPCGDAFASGSDDATCRLYDLRA	2.16
YYPDGDAFASGSDDATCRLYDLRA	3.56
YYPEGDAFASGSDDATCRLYDLRA	3.72
YYPFGDAFASGSDDATCRLYDLRA	2.29
YYPGGDAFASGSDDATCRLYDLRA	3.14
YYPHGDAFASGSDDATCRLYDLRA	2.87
YYPIGDAFASGSDDATCRLYDLRA	2.8
YYPKGDAFASGSDDATCRLYDLRA	3.33
YYPLGDAFASGSDDATCRLYDLRA	2.52
YYPMGDAFASGSDDATCRLYDLRA	3.45
YYPNGDAFASGSDDATCRLYDLRA	3.03
YYPPGDAFASGSDDATCRLYDLRA	3.78
YYPQGDAFASGSDDATCRLYDLRA	3.48
YYPRGDAFASGSDDATCRLYDLRA	2.46

Variant	protein stability index
YYPTGDAFASGSDDATCRLYDLRA	2.86
YYPVGDAFASGSDDATCRLYDLRA	2.56
YYPWGDAFASGSDDATCRLYDLRA	2.49
YYPYGDAFASGSDDATCRLYDLRA	2.82
YYPSADAFASGSDDATCRLYDLRA	2.95
YYPSCDAFASGSDDATCRLYDLRA	3.39
YYPSDDAFASGSDDATCRLYDLRA	3.77
YYPSEDAFASGSDDATCRLYDLRA	3.96
YYPSFDAFASGSDDATCRLYDLRA	2.61
YYPSHDAFASGSDDATCRLYDLRA	2.81
YYPSIDAFASGSDDATCRLYDLRA	2.8
YYPSKDAFASGSDDATCRLYDLRA	2.89
YYPSLDAFASGSDDATCRLYDLRA	2.76
YYPSMDAFASGSDDATCRLYDLRA	2.88
YYPSNDAFASGSDDATCRLYDLRA	3.88
YYPSPDAFASGSDDATCRLYDLRA	2.69
YYPSQDAFASGSDDATCRLYDLRA	2.7
YYPSRDAFASGSDDATCRLYDLRA	3.12
YYPSSDAFASGSDDATCRLYDLRA	3.09
YYPSTDAFASGSDDATCRLYDLRA	3.56
YYPSVDAFASGSDDATCRLYDLRA	3.17
YYPSWDAFASGSDDATCRLYDLRA	2.37
